Experimental data from publication PMC4632715.

Target: FN3 monobody 2C12 (binder of MAP2K5), purified FLAG-tagged protein
Assay: pull-down; 1 pmol each of four purified biotinylated targets spiked into HeLa cell lysate (10 µg), 10 pmol purified FLAG-tagged monobody, 2 h 4 °C; captured on anti-FLAG magnetic beads, RIPA washes; blot probed with streptavidin-IR dye

B1: mitogen-activated protein kinase kinase 5 (MAP2K5), amino acids 5-108 (domain or fragment)
chain: ALGPFPAMENQVLVIRIKIPNSGAVDWTVHSGPQLLFRDVLDVIGQVLPEATTTAFEYEDEDGDRITVRSDEEMKAMLSYYYSTVMEQQVNGQLIEPLQIFPRA
modifications: biotin (Avitag, in vivo); a non-biotinylated form served as soluble competitor
In the case of B1, the percent of input pulled down is reported as 33%.
